Results published in PMC4207522, “Interaction of Omega, Sigma, and Theta glutathione transferases with p38b mitogenactivated protein kinase from the fruit fly, Drosophila melanogaster” (Journal of Insect Science, 2014).

What was measured:
[1] = molecular target: p38b mitogen-activated protein kinase (Drosophila melanogaster) (UniProt O61443)
[2] = molecular target: p38b mitogen-activated protein kinase (Drosophila melanogaster) (UniProt O61443); remark: listed apart in the source
[3] = molecular target: p38b mitogen-activated protein kinase (Drosophila melanogaster) (UniProt O61443); remark: listed apart in the source

Chain of UniProt O61443 (O61443 whole entry): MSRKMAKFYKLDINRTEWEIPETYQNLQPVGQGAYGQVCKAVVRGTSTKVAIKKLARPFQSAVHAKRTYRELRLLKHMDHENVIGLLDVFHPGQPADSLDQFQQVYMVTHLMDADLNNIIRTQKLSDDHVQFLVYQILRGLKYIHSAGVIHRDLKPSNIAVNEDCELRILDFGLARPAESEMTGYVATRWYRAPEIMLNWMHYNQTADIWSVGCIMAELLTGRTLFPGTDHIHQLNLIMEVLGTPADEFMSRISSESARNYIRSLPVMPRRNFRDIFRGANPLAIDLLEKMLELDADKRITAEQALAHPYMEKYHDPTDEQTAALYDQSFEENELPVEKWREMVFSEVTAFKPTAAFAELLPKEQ

Row | Substance | p38b kinase activity toward Jun with the GST at 1:1 molar ratio (ADP Quest assay), fold against the reaction without GST [1] [fold] | GST conjugating activity toward CDNB after 5 min with p38b at 1:1 molar ratio, percent increase against no p38b [2] [%] | p38b kinase activity toward ATF2 with the GST at 1:1 molar ratio (ADP Quest assay), fold against the reaction without GST [1] [fold] | p38b kinase activity toward ATF2 with DmGSTT3b, fold against p38b with DmGSTT3a [3] [fold] | p38b kinase activity toward Jun with DmGSTT3b, fold against p38b with DmGSTT3a [3] [fold] | GST conjugating activity toward CDNB after 5 min with p38b at 1:1 molar ratio, percent decrease against no p38b [2] [%] | GST thiol transferase activity toward HED after 5 min with p38b at 1:1 molar ratio, percent change (a decrease by the discussion) against no p38b [2] [%]
1 | DmGSTO1 (enzyme) | 2 | 58 |  |  |  |  | 
2 | DmGSTO2a (enzyme) |  | 26 |  |  |  |  | 
3 | DmGSTT2 (enzyme) | 4.3 | 14 | 3.1 |  |  |  | 
4 | DmGSTT3b (enzyme) | 7.4 |  | 3.4 | 3.1 | 6.9 | 84 | 
5 | DmGSTO3 (enzyme) | 1.6 |  |  |  |  |  | 14
